Article PMC11574045, “A cofactor-induced repressive type of transcription factor condensation can be induced by synthetic peptides to suppress tumorigenesis” (The EMBO Journal, 2024)

B1: PGR (protein, UniProt P06401 1-933, looked up)
Progesterone receptor: MTELKAKGPRAPHVAGGPPSPEVGSPLLCRPAAGPFPGSQTSDTLPEVSAIPISLDGLLFPRPCQGQDPSDEKTQDQQSLSDVEGAYSRAEATRGAGGSSSSPPEKDSGLLDSVLDTLLAPSGPGQSQPSPPACEVTSSWCLFGPELPEDPPAAPATQRVLSPLMSRSGCKVGDSSGTAAAHKVLPRGLSPARQLLLPASESPHWSGAPVKPSPQAAAVEVEEEDGSESEESAGPLLKGKPRALGGAAAGGGAAAVPPGAAAGGVALVPKEDSRFSAPRVALVEQDAPMAPGRSPLATTVMDFIHVPILPLNHALLAARTRQLLEDESYDGGAGAASAFAPPRSSPCASSTPVAVGDFPDCAYPPDAEPKDDAYPLYSDFQPPALKIKEEEEGAEASARSPRSYLVAGANPAAFPDFPLGPPPPLPPRATPSRPGEAAVTAAPASASVSSASSSGSTLECILYKAEGAPPQQGPFAPPPCKAPGASGCLLPRDGLPSTSASAAAAGAAPALYPALGLNGLPQLGYQAAVLKEGLPQVYPPYLNYLRPDSEASQSPQYSFESLPQKICLICGDEASGCHYGVLTCGSCKVFFKRAMEGQHNYLCAGRNDCIVDKIRRKNCPACRLRKCCQAGMVLGGRKFKKFNKVRVVRALDAVALPQPVGVPNESQALSQRFTFSPGQDIQLIPPLINLLMSIEPDVIYAGHDNTKPDTSSSLLTSLNQLGERQLLSVVKWSKSLPGFRNLHIDDQITLIQYSWMSLMVFGLGWRSYKHVSGQMLYFAPDLILNEQRMKESSFYSLCLTMWQIPQEFVKLQVSQEEFLCMKVLLLLNTIPLEGLRSQTQFEEMRSSYIRELIKAIGLRQKGVVSSSQRFYQLTKLLDNLHDLVKQLHLYCLNTFIQSRALSVEFPEMMSEVIAAQLPKILAGMVKPLLFHKK
B2: POU2F2 (protein, UniProt P09086 1-479, looked up)
POU domain, class 2, …: MVHSSMGAPEIRMSKPLEAEKQGLDSPSEHTDTERNGPDTNHQNPQNKTSPFSVSPTGPSTKIKAEDPSGDSAPAAPLPPQPAQPHLPQAQLMLTGSQLAGDIQQLLQLQQLVLVPGHHLQPPAQFLLPQAQQSQPGLLPTPNLFQLPQQTQGALLTSQPRAGLPTQAVTRPTLPDPHLSHPQPPKCLEPPSHPEEPSDLEELEQFARTFKQRRIKLGFTQGDVGLAMGKLYGNDFSQTTISRFEALNLSFKNMCKLKPLLEKWLNDAETMSVDSSLPSPNQLSSPSLGFDGLPGRRRKKRTSIETNVRFALEKSFLANQKPTSEEILLIAEQLHMEKEVIRVWFCNRRQKEKRINPCSAAPMLPSPGKPASYSPHMVTPQGGAGTLPLSQASSSLSTTVTTLSSAVGTLHPSRTAGGGGGGGGAAPPLNSIPSVTPPPPATTNSTNPSPQGSHSAIGLSGLNPSTGPGLWWNPAPYQP
B3: PIAS2 (protein, UniProt O75928 1-621, looked up)
E3 SUMO-protein ligase PIAS2: MADFEELRNMVSSFRVSELQVLLGFAGRNKSGRKHDLLMRALHLLKSGCSPAVQIKIRELYRRRYPRTLEGLSDLSTIKSSVFSLDGGSSPVEPDLAVAGIHSLPSTSVTPHSPSSPVGSVLLQDTKPTFEMQQPSPPIPPVHPDVQLKNLPFYDVLDVLIKPTSLVQSSIQRFQEKFFIFALTPQQVREICISRDFLPGGRRDYTVQVQLRLCLAETSCPQEDNYPNSLCIKVNGKLFPLPGYAPPPKNGIEQKRPGRPLNITSLVRLSSAVPNQISISWASEIGKNYSMSVYLVRQLTSAMLLQRLKMKGIRNPDHSRALIKEKLTADPDSEIATTSLRVSLMCPLGKMRLTIPCRAVTCTHLQCFDAALYLQMNEKKPTWICPVCDKKAAYESLILDGLFMEILNDCSDVDEIKFQEDGSWCPMRPKKEAMKVSSQPCTKIESSSVLSKPCSVTVASEASKKKVDVIDLTIESSSDEEEDPPAKRKCIFMSETQSSPTKGVLMYQPSSVRVPSVTSVDPAAIPPSLTDYSVPFHHTPISSMSSDLPGLDFLSLIPVDPQYCPPMFLDSLTSPLTASSTSVTTTSSHESSTHVSSSSSRSETGVITSSGSNIPDIISLD
B4: POU3F2 (protein, UniProt P20265 1-443, looked up)
POU domain, class 3, …: MATAASNHYSLLTSSASIVHAEPPGGMQQGAGGYREAQSLVQGDYGALQSNGHPLSHAHQWITALSHGGGGGGGGGGGGGGGGGGGGGDGSPWSTSPLGQPDIKPSVVVQQGGRGDELHGPGALQQQHQQQQQQQQQQQQQQQQQQQQQRPPHLVHHAANHHPGPGAWRSAAAAAHLPPSMGASNGGLLYSQPSFTVNGMLGAGGQPAGLHHHGLRDAHDEPHHADHHPHPHSHPHQQPPPPPPPQGPPGHPGAHHDPHSDEDTPTSDDLEQFAKQFKQRRIKLGFTQADVGLALGTLYGNVFSQTTICRFEALQLSFKNMCKLKPLLNKWLEEADSSSGSPTSIDKIAAQGRKRKKRTSIEVSVKGALESHFLKCPKPSAQEITSLADSLQLEKEVVRVWFCNRRQKEKRMTPPGGTLPGAEDVYGGSRDTPPHHGVQTPVQ
B5: BACH1 (protein, UniProt O14867 1-736, looked up)
Transcription regulator …: MSLSENSVFAYESSVHSTNVLLSLNDQRKKDVLCDVTIFVEGQRFRAHRSVLAACSSYFHSRIVGQADGELNITLPEEVTVKGFEPLIQFAYTAKLILSKENVDEVCKCVEFLSVHNIEESCFQFLKFKFLDSTADQQECPRKKCFSSHCQKTDLKLSLLDQRDLETDEVEEFLENKNVQTPQCKLRRYQGNAKASPPLQDSASQTYESMCLEKDAALALPSLCPKYRKFQKAFGTDRVRTGESSVKDIHASVQPNERSENECLGGVPECRDLQVMLKCDESKLAMEPEETKKDPASQCPTEKSEVTPFPHNSSIDPHGLYSLSLLHTYDQYGDLNFAGMQNTTVLTEKPLSGTDVQEKTFGESQDLPLKSDLGTREDSSVASSDRSSVEREVAEHLAKGFWSDICSTDTPCQMQLSPAVAKDGSEQISQKRSECPWLGIRISESPEPGQRTFTTLSSVNCPFISTLSTEGCSSNLEIGNDDYVSEPQQEPCPYACVISLGDDSETDTEGDSESCSAREQECEVKLPFNAQRIISLSRNDFQSLLKMHKLTPEQLDCIHDIRRRSKNRIAAQRCRKRKLDCIQNLESEIEKLQSEKESLLKERDHILSTLGETKQNLTGLCQKVCKEAALSQEQIQILAKYSAADCPLSFLISEKDKSTPDGELALPSIFSLSDRPPAVLPPCARGNSEPGYARGQESQQMSTATSEQAGPAEQCRQSGGISDFCQQMTDKCTTDE
B6: PIAS4 (protein, UniProt Q9JM05 2-507, looked up)
E3 SUMO-protein ligase PIAS4: AAELVEAKNMVMSFRVSDLQMLLGFVGRSKSGLKHELVTRALQLVQFDCSPELFKKIKELYETRYAKKSAEPGPQAPRPLDPLALHSMPRTPLSGPTVDYPVLYGKYLNGLGRLPTKTLKPEVRLVKLPFFNMLDELLKPTELVPQSAEKLQESPCIFALTPRQVEMIRNSRELQPGVKAVQVVLRICYSDTSCPQEDQYPPNIAVKVNHSYCSVPGYYPSNKPGVEPKRPCRPINLTHLMYLSSATNRITVTWGNYGKSYSVALYLVRQLTSSDLLQRLKTIGVKHPELCKALVKEKLRLDPDSEIATTGVRVSLICPLVKMRLSVPCRAETCAHLQCFDAVFYLQMNEKKPTWMCPVCDKPAAYDQLIIDGLLSKILSECEGADEIEFLAEGSWRPIRAEKEPSCSPQGPILVLGTSDANGLAPASSTPGIGSGLSGPGSAGSGAGAAGSLENGKTGADVVDLTLDSSSSSEDEDEDEDDDEDEDEGPRPKRRCPFQKGLVPAC
B7: POU3F3 (protein, UniProt P20264 1-500, looked up)
POU domain, class 3, …: MATAASNPYLPGNSLLAAGSIVHSDAAGAGGGGGGGGGGGGGGAGGGGGGMQPGSAAVTSGAYRGDPSSVKMVQSDFMQGAMAASNGGHMLSHAHQWVTALPHAAAAAAAAAAAAVEASSPWSGSAVGMAGSPQQPPQPPPPPPQGPDVKGGAGRDDLHAGTALHHRGPPHLGPPPPPPHQGHPGGWGAAAAAAAAAAAAAAAAHLPSMAGGQQPPPQSLLYSQPGGFTVNGMLSAPPGPGGGGGGAGGGAQSLVHPGLVRGDTPELAEHHHHHHHHAHPHPPHPHHAQGPPHHGGGGGGAGPGLNSHDPHSDEDTPTSDDLEQFAKQFKQRRIKLGFTQADVGLALGTLYGNVFSQTTICRFEALQLSFKNMCKLKPLLNKWLEEADSSTGSPTSIDKIAAQGRKRKKRTSIEVSVKGALESHFLKCPKPSAQEITNLADSLQLEKEVVRVWFCNRRQKEKRMTPPGIQQQTPDDVYSQVGTVSADTPPPHHGLQTSVQ
B8: POLR3C (protein, UniProt Q9BUI4 1-534, looked up)
DNA-directed RNA polymerase …: MTQAEIKLCSLLLQEHFGEIVEKIGVHLIRTGSQPLRVIAHDTGTSLDQVKKALCVLVQHNLVSYQVHKRGVVEYEAQCSRVLRMLRYPRYIYTTKTLYSDTGELIVEELLLNGKLTMSAVVKKVADRLTETMEDGKTMDYAEVSNTFVRLADTHFVQRCPSVPTTENSDPGPPPPAPTLVINEKDMYLVPKLSLIGKGKRRRSSDEDAAGEPKAKRPKYTTDNKEPIPDDGIYWQANLDRFHQHFRDQAIVSAVANRMDQTSSEIVRTMLRMSEITTSSSAPFTQPLSSNEIFRSLPVGYNISKQVLDQYLTLLADDPLEFVGKSGDSGGGMYVINLHKALASLATATLESVVQERFGSRCARIFRLVLQKKHIEQKQVEDFAMIPAKEAKDMLYKMLSENFMSLQEIPKTPDHAPSRTFYLYTVNILSAARMLLHRCYKSIANLIERRQFETKENKRLLEKSQRVEAIIASMQATGAEEAQLQEIEEMITAPERQQLETLKRNVNKLDASEIQVDETIFLLESYIECTMKRQ
B9: POU3F1 (protein, UniProt Q03052 1-451, looked up)
POU domain, class 3, …: MATTAQYLPRGPGGGAGGTGPLMHPDAAAAAAAAAAAERLHAGAAYREVQKLMHHEWLGAGAGHPVGLAHPQWLPTGGGGGGDWAGGPHLEHGKAGGGGTGRADDGGGGGGFHARLVHQGAAHAGAAWAQGSTAHHLGPAMSPSPGASGGHQPQPLGLYAQAAYPGGGGGGLAGMLAAGGGGAGPGLHHALHEDGHEAQLEPSPPPHLGAHGHAHGHAHAGGLHAAAAHLHPGAGGGGSSVGEHSDEDAPSSDDLEQFAKQFKQRRIKLGFTQADVGLALGTLYGNVFSQTTICRFEALQLSFKNMCKLKPLLNKWLEETDSSSGSPTNLDKIAAQGRKRKKRTSIEVGVKGALESHFLKCPKPSAHEITGLADSLQLEKEVVRVWFCNRRQKEKRMTPAAGAGHPPMDDVYAPGELGPGGGGASPPSAPPPPPPAALHHHHHHTLPGSVQ
B10: POU2AF1 (protein, UniProt Q16633 1-256, looked up)
POU domain class …: MLWQKPTAPEQAPAPARPYQGVRVKEPVKELLRRKRGHASSGAAPAPTAVVLPHQPLATYTTVGPSCLDMEGSVSAVTEEAALCAGWLSQPTPATLQPLAPWTPYTEYVPHEAVSCPYSADMYVQPVCPSYTVVGPSSVLTYASPPLITNVTTRSSATPAVGPPLEGPEHQAPLTYFPWPQPLSTLPTSTLQYQPPAPALPGPQFVQLPISIPEPVLQDMEDPRRAASSLTIDKLLLEEEDSDAYALNHTLSVEGF

Tested on: HEK293FT cells transfected with TF library
Test: Screening of TF condensates based on fluorescent puncta
Assay type: cell-based
Settings: Figure 1B numerical data; TF library screen, one value per transcriptional factor
How it was run: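 HEK293FT, PEI transfection of TF library, 60 h; ±glucose 12 h; 4% PFA fix, 0.05% Triton X-100 permeabilization, 5% BSA block; anti-Flag/anti-GAL4 overnight at 4 °C, Alexa 488 secondary 1 h; high-content imaging, 50 fields/well.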

Row | Molecule | Z score of condensed fraction
1 | B1 | 1.815
2 | B2 | -0.2237
3 | B3 | -0.03329
4 | B4 | -0.6292
5 | B5 | -0.5247
6 | B6 | -0.6594
7 | B7 | 1.399
8 | B8 | 2.0488
9 | B9 | -0.6601
10 | B10 | 2.502
